Laboratory results: article PMC13264800

Columns and labels:
[1] = molecular target: recombinant human IgE (trastuzumab-IgE; anti-Her2-IgE) (human); test: SPR; Biacore X100, HBS-EP+ running buffer; Her2 amine-coupled on a CM5 chip, trastuzumab-IgE captured via Her2; anti-IgE as full-length IgG or Fab injected (1.56-25 nM or 1.56-50 nM), association 120 s, dissociation 300 s; 1:1 langmuir fit
[2] = molecular target: recombinant macaque IgE (trastuzumab-IgE; anti-Her2-IgE) (macaque); test: as above
[3] = molecular target: recombinant human IgE (trastuzumab-IgE; anti-Her2-IgE) (human); test: SEC-MALS; trastuzumab-IgE mixed with anti-IgE IgG at different molar ratios

| Substance | Kd [1] | koff [1] | kon [1] | Kd [2] | koff [2] | kon [2] | stoichiometry N (4:4 (anti-IgE:IgE)) [3] |
| --- | --- | --- | --- | --- | --- | --- | --- |
| Omalizumab Fab | 14.6 nM | 0.00614 s⁻¹ | 420000 M⁻¹ s⁻¹ | 16.1 nM | 0.00811 s⁻¹ | 504000 M⁻¹ s⁻¹ |  |
| Omalizumab full-length IgG (antibody) | 0.0594 nM |  |  | 0.0543 nM |  |  | 4 |
